The data set deals with the molecule itself. The experiment in a line: SEC-MALS.

B1: cherry-core (CC) of CynR, effector binding domain (domain or fragment, Escherichia coli, UniProt P27111 59-299, looked up)
chain: DAGEVWRQYASRALQELGAGKRAIHDVADLTRGSLRIAVTPTFTSYFIGPLMADFYARYPSITLQLQEMSQEKIEDMLCRDELDVGIAFAPVHSPELEAIPLLTESLALVVAQHHPLAVHEQVALSRLHDEKLVLLSAEFATREQIDHYCEKAGLHPQVVIEANSISAVLELIRRTSLSTLLPAAIATQHDGLKAISLAPPLLERTAVLLRRKNSWQTAAAKAFLHMALDKCAVVGGNESR
In general, stoichiometry N refers to a count of units in the complex or per binding partner. For B1, the “stoichiometry N” value worked out at 2.

B2: CynR (full length) (natural protein, Escherichia coli, UniProt P27111 1-299, looked up)
chain: MLSRHINYFLAVAEHGSFTRAASALHVSQPALSQQIRQLEESLGVPLFDRSGRTIRLTDAGEVWRQYASRALQELGAGKRAIHDVADLTRGSLRIAVTPTFTSYFIGPLMADFYARYPSITLQLQEMSQEKIEDMLCRDELDVGIAFAPVHSPELEAIPLLTESLALVVAQHHPLAVHEQVALSRLHDEKLVLLSAEFATREQIDHYCEKAGLHPQVVIEANSISAVLELIRRTSLSTLLPAAIATQHDGLKAISLAPPLLERTAVLLRRKNSWQTAAAKAFLHMALDKCAVVGGNESR
In the case of B2, the “stoichiometry N” value is 4.

(Values after doi:10.1101/2020.10.19.344861 (bioRxiv, 2020).)
